Experiments:
[1] = target: T1, hPDGFRb.mmh (human, UniProt P09619 33-531); test: blocking ELISA, biot-hPDGFRb.mmh to coated PDGF-BB
T1 construct: Soluble monomeric construct; also called soluble human PDGFR-beta.mmh

[2] = target: T1, hPDGFRb.mmh; test: Octet BLI cross-competition, 25 C; hPDGFRb.mmh on anti-Penta-His tips pre-saturated with mAb-1 H4H3094P (row 5)
Protocol: (§1) A cross-competition assay was conducted to assess the ability of select antibodies to compete with one another for binding to human PDGFR-beta. […] Each PDGFR-beta.mmh-coated sensor tip was saturated for 5 min with a first anti-PDGFR-beta antibody (Mab #1; 50 μg/mL). Next, each sensor tip was saturated with a solution of a second anti-PDGFR-beta antibody (Mab #2). The real time response of Mab #2 binding to PDGR-beta.mmh pre-complexed with Mab #1 was then monitored. All assays were performed at 25° C. with a flow rate of 1000 rpm on an Octet RED384 biosensor in Octet HBST buffer according to manufacturer's instructions (ForteBio Corp., Menlo Park, Calif.). Results are illustrated in FIG. 2.

[3] = target: T1, hPDGFRb.mmh; test: Octet BLI cross-competition, 25 C; hPDGFRb.mmh on anti-Penta-His tips pre-saturated with mAb-1 H4H3103S (row 4)
Protocol: as §1

[4] = target: T2, full length human PDGFR-beta on HEK293 cells (human, UniProt P09619 33-1106); test: cell-based or functional assay
[5] = target: T2, full length human PDGFR-beta on HEK293 …; test: cell-based or functional assay; remark: listed apart in the source
[6] = target: T1, hPDGFRb.mmh; test: Octet BLI cross-competition, 25 C; hPDGFRb.mmh on anti-Penta-His tips pre-saturated with mAb-1 H4H3305N (row 8)
Protocol: as §1

[7] = target: T3, Macaca fascicularis PDGFRb.mmh (Macaca fascicularis); test: SPR, mAb captured, 25 C
T3 construct: Soluble monomeric construct; also called mfPDGFRb.mmh
T3 chain: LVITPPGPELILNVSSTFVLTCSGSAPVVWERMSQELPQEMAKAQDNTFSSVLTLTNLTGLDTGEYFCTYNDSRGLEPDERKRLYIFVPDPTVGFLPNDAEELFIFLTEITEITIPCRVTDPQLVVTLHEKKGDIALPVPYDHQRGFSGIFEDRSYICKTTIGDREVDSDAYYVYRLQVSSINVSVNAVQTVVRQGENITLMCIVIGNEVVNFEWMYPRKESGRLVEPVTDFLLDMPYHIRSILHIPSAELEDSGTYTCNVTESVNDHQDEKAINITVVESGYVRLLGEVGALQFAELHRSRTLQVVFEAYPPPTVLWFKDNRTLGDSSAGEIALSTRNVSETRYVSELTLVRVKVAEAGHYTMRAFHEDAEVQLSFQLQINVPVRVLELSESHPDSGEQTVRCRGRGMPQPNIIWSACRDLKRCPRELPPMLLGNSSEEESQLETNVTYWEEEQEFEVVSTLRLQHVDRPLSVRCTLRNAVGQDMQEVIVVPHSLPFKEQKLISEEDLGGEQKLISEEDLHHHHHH
Protocol: (§2) Antibodies, expressed as either mouse Fc (prefix H1M; H2M) or human Fc (prefix H4H), were captured on their respective anti-Fc sensor surfaces (Mab capture format). […] Kinetic association (kₐ) and dissociation (kd) rate constants were determined by processing and fitting the data to a 1:1 binding model using Scrubber 2.0 curve fitting software.

[8] = target: T1, hPDGFRb.mmh; test: SPR, mAb captured, 25 C
Protocol: as §2

[9] = target: T4, human PDGFRb.hFc (human); test: SPR, mAb captured, 25 C
T4 construct: Soluble dimeric construct with human Fc; also called hPDGFRb.hFc
Protocol: as §2

[10] = target: T3, Macaca fascicularis PDGFRb.mmh; test: SPR, mAb captured, 37 C
Protocol: as §2

[11] = target: T1, hPDGFRb.mmh; test: SPR, mAb captured, 37 C
Protocol: as §2

[12] = target: T4, human PDGFRb.hFc; test: SPR, mAb captured, 37 C
Protocol: as §2

[13] = target: T1, hPDGFRb.mmh; test: Octet BLI cross-competition, 25 C; hPDGFRb.mmh on anti-Penta-His tips pre-saturated with mAb-1 H4H3310N (row 9)
Protocol: as §1

[14] = target: T1, hPDGFRb.mmh; test: Octet BLI cross-competition, 25 C; hPDGFRb.mmh on anti-Penta-His tips pre-saturated with mAb-1 H4H3374N (row 3)
Protocol: as §1

[15] = target: T1, hPDGFRb.mmh; test: Octet BLI cross-competition, 25 C; hPDGFRb.mmh on anti-Penta-His tips pre-saturated with mAb-1 H4H3099S (row 6)
Protocol: as §1

[16] = target: T1, hPDGFRb.mmh; test: Octet BLI cross-competition, 25 C; hPDGFRb.mmh on anti-Penta-His tips pre-saturated with mAb-1 H4H3107S (row 7)
Protocol: as §1

[17] = target: human PDGF-BB (human, UniProt P01127 82-190); test: SPR (Biacore 3000), 30 nM ligand over hPDGFRb.mFc captured by anti-mouse Fc, no antibody
Source text: Real-time binding response was monitored throughout the course of the assay and was compared to the binding response measured when PDGF ligand was applied over the derivatized captured control surface in the absence of captured antibody.

Chain of human PDGF-BB (P01127 82-190 limits assumed): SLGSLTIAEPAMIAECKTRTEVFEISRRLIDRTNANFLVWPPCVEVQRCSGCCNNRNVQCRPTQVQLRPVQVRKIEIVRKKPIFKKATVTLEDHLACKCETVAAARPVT

B1: H4H3365N (antibody, human IgG4, V domains shown)
VH: EVQLVESGGGLVQPGRSLRLSCAASGFTFDDFAMHWVRQVPGKGLEWVSGISWSSGTIGYVGSVKGRFTISRDNAKNSLYLQMNSLRAEDTAMYFCTKDKAAFHDAFDIWGQGTMVTVSS
VL: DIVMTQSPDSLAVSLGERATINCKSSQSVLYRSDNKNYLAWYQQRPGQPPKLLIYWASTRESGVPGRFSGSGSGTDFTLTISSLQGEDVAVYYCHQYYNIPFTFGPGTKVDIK
notes: human IgG4 Fc (H4H prefix)
Question: Which results are given for B1?
Answer: % Maximum Blocking [1]: 87%; IC50 [1]: 0.37 nM; Response of mAb-2 Binding to hPDGFRβ.mmh Pre-Complexed with mAb-1 (nm) [2]: 0 nm; Response of mAb-2 Binding to hPDGFRβ.mmh Pre-Complexed with mAb-1 (nm) [3]: 0.01 nm; IC50, blocking PDGF-BB (250 pM) activation, SRE-luciferase [4]: 2.3e-10 M; IC50, blocking PDGF-DD (400 pM) activation, SRE-luciferase [4]: 3.7e-10 M; Percent Internalization (Relative to Control I) [5]: 65%; Response of mAb-2 Binding to hPDGFRβ.mmh Pre-Complexed with mAb-1 (nm) [6]: 0.28 nm; Kd [7]: 1.7 nM; koff [7]: 0.00015 s⁻¹; kon [7]: 88300 M⁻¹ s⁻¹; t1/2 [7]: 1.28 h; Kd [8]: 1.66 nM; koff [8]: 0.000142 s⁻¹; kon [8]: 85300 M⁻¹ s⁻¹; t1/2 [8]: 1.35 h; Kd [9]: 0.244 nM; koff [9]: 4.55e-05 s⁻¹; kon [9]: 184000 M⁻¹ s⁻¹; t1/2 [9]: 4.23 h; Kd [10]: 5.06 nM; koff [10]: 0.00101 s⁻¹; kon [10]: 200000 M⁻¹ s⁻¹; t1/2 [10]: 0.183 h; Kd [11]: 5.38 nM; koff [11]: 0.00102 s⁻¹; kon [11]: 190000 M⁻¹ s⁻¹; t1/2 [11]: 0.183 h; Kd [12]: 1.05 nM; koff [12]: 0.000264 s⁻¹; kon [12]: 250000 M⁻¹ s⁻¹; t1/2 [12]: 0.733 h; Response of mAb-2 Binding to hPDGFRβ.mmh Pre-Complexed with mAb-1 (nm) [13]: 0.28 nm; Response of mAb-2 Binding to hPDGFRβ.mmh Pre-Complexed with mAb-1 (nm) [14]: 0.01 nm; Response of mAb-2 Binding to hPDGFRβ.mmh Pre-Complexed with mAb-1 (nm) [15]: 0.29 nm; Response of mAb-2 Binding to hPDGFRβ.mmh Pre-Complexed with mAb-1 (nm) [16]: 0.26 nm

B2: human PDGFRb.mFc (Fc fusion)
chain: LVVTPPGPELVLNVSSTFVLTCSGSAPVVWERMSQEPPQEMAKAQDGTFSSVLTLTNLTGLDTGEYFCTHNDSRGLETDERKRLYIFVPDPTVGFLPNDAEELFIFLTEITEITIPCRVTDPQLVVTLHEKKGDVALPVPYDHQRGFFGIFEDRSYICKTTIGDREVDSDAYYVYRLQVSSINVSVNAVQTVVRQGENITLMCIVIGNEVVNFEWTYPRKESGRLVEPVTDFLLDMPYHIRSILHIPSAELEDSGTYTCNVTESVNDHQDEKAINITVVESGYVRLLGEVGTLQFAELHRSRTLQVVFEAYPPPTVLWFKDNRTLGDSSAGEIALSTRNVSETRYVSELTLVRVKVAEAGHYTMRAFHEDAEVQLSFQLQINVPVRVLELSESHPDSGEQTVRCRGRGMPQPNIIWSACRDLKRCPRELPPTLLGNSSEEESQLETNVTYWEEEQEFEVVSTLRLQHVDRPLSVRCTLRNAVGQDTQEVIVVPHSLPFKEPRGPTIKPCPPCKCPAPNLLGGPSVFIFPPKIKDVLMISLSPIVTCVVVDVSEDDPDVQISWFVNNVEVHTAQTQTHREDYNSTLRVVSALPIQHQDWMSGKEFKCKVNNKDLPAPIERTISKPKGSVRAPQVYVLPPPEEEMTKKQVTLTCMVTDFMPEDIYVEWTNNGKTELNYKNTEPVLDSDGSYFMYSKLRVEKKNWVERNSYSCSVVHEGLHNHHTTKSFSRTPGK
notes: Soluble dimeric construct with mouse Fc; also called hPDGFRb.mFc; soluble human PDGFR-beta.mFc
Question: Does B2 bind [17]?
Answer: binds
